This is an account of results in article doi:10.1101/2023.11.01.565136.

As usually defined, the stoichiometry N is the number of molecules, sites or subunits per partner or assembly.

The assay concerns the target T1, Full-length human E6AP (E6-associated protein) (human), Q05086.
T1 chain: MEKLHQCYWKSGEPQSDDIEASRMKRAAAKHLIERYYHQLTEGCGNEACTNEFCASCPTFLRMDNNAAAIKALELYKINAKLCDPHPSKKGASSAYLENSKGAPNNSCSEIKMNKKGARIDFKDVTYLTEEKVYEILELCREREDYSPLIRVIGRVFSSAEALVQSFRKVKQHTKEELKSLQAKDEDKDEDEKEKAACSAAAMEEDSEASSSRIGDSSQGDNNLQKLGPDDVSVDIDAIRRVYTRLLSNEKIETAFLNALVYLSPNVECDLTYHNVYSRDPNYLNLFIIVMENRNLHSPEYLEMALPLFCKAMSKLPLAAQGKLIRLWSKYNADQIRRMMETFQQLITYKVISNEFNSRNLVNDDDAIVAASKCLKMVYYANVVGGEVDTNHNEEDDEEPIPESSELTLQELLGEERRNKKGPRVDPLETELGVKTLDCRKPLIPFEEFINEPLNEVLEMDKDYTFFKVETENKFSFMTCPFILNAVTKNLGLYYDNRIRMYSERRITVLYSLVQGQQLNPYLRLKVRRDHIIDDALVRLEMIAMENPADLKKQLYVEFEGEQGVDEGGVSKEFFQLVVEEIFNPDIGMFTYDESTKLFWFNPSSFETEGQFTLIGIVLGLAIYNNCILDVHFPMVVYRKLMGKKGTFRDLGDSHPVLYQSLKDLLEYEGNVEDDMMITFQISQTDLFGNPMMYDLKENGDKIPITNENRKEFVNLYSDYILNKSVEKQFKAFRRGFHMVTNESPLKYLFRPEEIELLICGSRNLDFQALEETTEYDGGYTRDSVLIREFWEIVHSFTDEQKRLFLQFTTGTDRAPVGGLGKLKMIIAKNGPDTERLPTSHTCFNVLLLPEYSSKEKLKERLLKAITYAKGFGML
Put plainly: mass photometry. The settings on record: remark: other sources report otherwise.

B1: Full-length human E6AP (E6-associated protein), Q05086 1-875 (enzyme)
chain: T1 chain
B1 gave a stoichiometry N of 2.
